According to doi:10.1101/2022.11.30.518474 (bioRxiv, 2022):

Molecular target: the molecule itself
Assay: SEC; purified recombinant protein (40 μg in 50 μl) on a TOSOH G2000 SWXL column in hexokinase buffer (20 mM HEPES, 5 mM Mg acetate, 100 mM NaCl, 0.5 mM EDTA, 0.5 mM DTT) without glucose, no ATP, 1 mL/min

B1: Recombinant Hxk2, wild type, C-terminal 6-histidine tag, from E. coli (enzyme, S. cerevisiae, UniProt P04807 1-486, looked up)
chain: MVHLGPKKPQARKGSMADVPKELMQQIENFEKIFTVPTETLQAVTKHFISELEKGLSKKGGNIPMIPGWVMDFPTGKESGDFLAIDLGGTNLRVVLVKLGGDRTFDTTQSKYRLPDAMRTTQNPDELWEFIADSLKAFIDEQFPQGISEPIPLGFTFSFPASQNKINEGILQRWTKGFDIPNIENHDVVPMLQKQITKRNIPIEVVALINDTTGTLVASYYTDPETKMGVIFGTGVNGAYYDVCSDIEKLQGKLSDDIPPSAPMAINCEYGSFDNEHVVLPRTKYDITIDEESPRPGQQTFEKMSSGYYLGEILRLALMDMYKQGFIFKNQDLSKFDKPFVMDTSYPARIEEDPFENLEDTDDLFQNEFGINTTVQERKLIRRLSELIGARAARLSVCGIAAICQKRGYKTGHIAADGSVYNRYPGFKEKAANALKDIYGWTQTSLDDYPIKIVPAEDGSGAGAAVIAALAQKRIAEGKSVGIIGA
notes: Hexokinase 2 (Hxk2) of S. cerevisiae; also called WT Hxk2; wild-type Hxk2; source: E. coli (pET14b), purified (Ni-NTA)
- stoichiometry N: 2
